The results in this text go back to PMC4857006.

Data set [1] deals with T1, mTdp2cat (Mus musculus, UniProt Q9JJX7 118-370).
T1 sequence: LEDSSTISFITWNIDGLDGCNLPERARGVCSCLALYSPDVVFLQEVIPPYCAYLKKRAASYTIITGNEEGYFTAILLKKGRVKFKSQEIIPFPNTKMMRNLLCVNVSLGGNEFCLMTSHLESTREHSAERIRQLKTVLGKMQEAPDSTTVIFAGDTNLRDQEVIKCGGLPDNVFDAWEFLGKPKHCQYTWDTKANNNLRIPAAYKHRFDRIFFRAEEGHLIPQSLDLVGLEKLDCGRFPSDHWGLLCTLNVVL
Description: X-ray crystallography (1.55 A); product complex; Crystals: hTdp2cat-DNA in 90 mM Tris pH 7.0, 27% PEG600, 9% glycerol, 450 mM (NH4)2SO4; mTdp2cat-DNA as in ref 20. Proteolysis buffer not in the material. Trp f.

The target in data set [2] is T2, hTdp2cat (Homo sapiens, UniProt O95551 108-362).
T2 sequence: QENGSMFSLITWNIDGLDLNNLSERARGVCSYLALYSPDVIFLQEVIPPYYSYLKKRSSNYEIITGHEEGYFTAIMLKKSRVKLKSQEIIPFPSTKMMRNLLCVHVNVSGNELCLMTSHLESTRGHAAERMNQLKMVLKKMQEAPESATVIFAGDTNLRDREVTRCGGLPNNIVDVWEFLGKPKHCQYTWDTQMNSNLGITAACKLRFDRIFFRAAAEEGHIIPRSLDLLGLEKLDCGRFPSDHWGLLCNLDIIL
Nature of the data set: X-ray crystallography (3.2 A); product complex; Crystals: hTdp2cat-DNA in 90 mM Tris pH 7.0, 27% PEG600, 9% glycerol, 450 mM (NH4)2SO4; mTdp2cat-DNA as in ref 20. Proteolysis buffer not in the material. Trp f.

Data set [3] has as its target T1, mTdp2cat. Description: X-ray crystallography; Mn2+ soak (5 mM MnCl2); Crystals: hTdp2cat-DNA in 90 mM Tris pH 7.0, 27% PEG600, 9% glycerol, 450 mM (NH4)2SO4; mTdp2cat-DNA as in ref 20. Proteolysis buffer not in the material. Trp f.
Data set [4] concerns the target T1, mTdp2cat. Description: X-ray crystallography (1.43 A); Mg2+; product complex; Crystals: hTdp2cat-DNA in 90 mM Tris pH 7.0, 27% PEG600, 9% glycerol, 450 mM (NH4)2SO4; mTdp2cat-DNA as in ref 20. Proteolysis buffer not in the material. Trp f.
Data set [5] concerns the target T2, hTdp2cat. Description: limited proteolysis protection (chymotrypsin); with or without Mg2+; Crystals: hTdp2cat-DNA in 90 mM Tris pH 7.0, 27% PEG600, 9% glycerol, 450 mM (NH4)2SO4; mTdp2cat-DNA as in ref 20. Proteolysis buffer not in the material. Trp f.
The target in data set [6] is T1, mTdp2cat. Nature of the data set: limited proteolysis protection (trypsin, chymotrypsin); Mg2+; more protection than Mg2+ alone; Crystals: hTdp2cat-DNA in 90 mM Tris pH 7.0, 27% PEG600, 9% glycerol, 450 mM (NH4)2SO4; mTdp2cat-DNA as in ref 20. Proteolysis buffer not in the material. Trp f.

B1: 5'-P dA DNA (dsDNA)
DNA 1: ACGAATTCG
DNA 2: ACGAATTCG
modifications: 5'-phosphate
Consider B1, for which the binding result in the data set with mTdp2cat [1] was “binds”.

B2: 5'-P dC DNA (dsDNA)
DNA 1: CCGAATTCG
DNA 2: CCGAATTCG
modifications: 5'-phosphate
B2: the binding result with hTdp2cat [2] and in the data set with mTdp2cat [3] was “binds” in each case.

B3: 5'-P epsilonA DNA (dsDNA)
DNA 1: ACGAATTCG
DNA 2: ACGAATTCG
modifications: 5'-phosphate; 5'-terminal A is 1-N6-ethenoadenine
For the molecule B3, the binding result with mTdp2cat [4] is “binds”.

B4: 12nt DNA (dsDNA)
DNA 1: CATCCGAATTCG
DNA 2: CATCCGAATTCG
modifications: 5'-phosphate
Consider B4, for which the binding result in the data set with hTdp2cat [5] and with mTdp2cat [6] was “binds” throughout.
